# Assay results as given in paper PMC12606367, “CryoEM and computational modeling structural insights into the pH regulator NBCn1” (Nature Communications, 2025).
# B1: N-terminally Strep(II)-tagged wt-human NBCn1-A (natural protein, UniProt Q9Y6M7-1 1-1214, looked up)
# chain: MERFRLEKKLPGPDEEAVVDLGKTSSTVNTKFEKEELESHRAVYIGVHVPFSKESRRRHRHRGHKHHHRRRKDKESDKEDGRESPSYDTPSQRVQFILGTEDDDEEHIPHDLFTEMDELCYRDGEEYEWKETARWLKFEEDVEDGGDRWSKPYVATLSLHSLFELRSCILNGTVMLDMRASTLDEIADMVLDNMIASGQLDESIRENVREALLKRHHHQNEKRFTSRIPLVRSFADIGKKHSDPHLLERNGEGLSASRHSLRTGLSASNLSLRGESPLSLLLGHLLPSSRAGTPAGSRCTTPVPTPQNSPPSSPSISRLTSRSSQESQRQAPELLVSPASDDIPTVVIHPPEEDLEAALKGEEQKNEENVDLTPGILASPQSAPGNLDNSKSGEIKGNGSGGSRENSTVDFSKVDMNFMRKIPTGAEASNVLVGEVDFLERPIIAFVRLAPAVLLTGLTEVPVPTRFLFLLLGPAGKAPQYHEIGRSIATLMTDEIFHDVAYKAKDRNDLLSGIDEFLDQVTVLPPGEWDPSIRIEPPKSVPSQEKRKIPVFHNGSTPTLGETPKEAAHHAGPELQRTGRLFGGLILDIKRKAPFFLSDFKDALSLQCLASILFLYCACMSPVITFGGLLGEATEGRISAIESLFGASLTGIAYSLFAGQPLTILGSTGPVLVFEKILYKFCRDYQLSYLSLRTSIGLWTSFLCIVLVATDASSLVCYITRFTEEAFAALICIIFIYEALEKLFDLGETYAFNMHNNLDKLTSYSCVCTEPPNPSNETLAQWKKDNITAHNISWRNLTVSECKKLRGVFLGSACGHHGPYIPDVLFWCVILFFTTFFLSSFLKQFKTKRYFPTKVRSTISDFAVFLTIVIMVTIDYLVGVPSPKLHVPEKFEPTHPERGWIISPLGDNPWWTLLIAAIPALLCTILIFMDQQITAVIINRKEHKLKKGAGYHLDLLMVGVMLGVCSVMGLPWFVAATVLSISHVNSLKVESECSAPGEQPKFLGIREQRVTGLMIFILMGLSVFMTSVLKFIPMPVLYGVFLYMGVSSLKGIQLFDRIKLFGMPAKHQPDLIYLRYVPLWKVHIFTVIQLTCLVLLWVIKVSAAAVVFPMMVLALVFVRKLMDLCFTKRELSWLDDLMPESKKKKEDDKKKKEKEEAERMLQDDDDTVHLPFEGGSLLQIPVKALKYSPDKPVSVKISFEDEPRKKYVDAETSL
# modifications: N-acetylglucosamine on Asn776, Asn786 and Asn796; disulfide bonds Cys766-Cys814 and Cys768-Cys802
# notes: human NBCn1-A (SLC4A7), NP_003606.3, 1214 aa, full length; the atomic model holds residues 581 to 1207; Homodimer in the cryoEM map; only residues 581-1207 (transmembrane domain and C-terminal helix) were built, the cytoplasmic N-terminal part is not in the model; also called SLC4A7; full-length human NBCn1; source: HEK293 cells, transfected (pcDNA3.1(+)), purified (StrepTrap HP, Superose 6 SEC, …)
# Target: the molecule itself
# Test: cryo-EM structure; purified NBCn1 (~1.5 mg/ml) in 20 mM Tris-HCl, 115 mM NaCl, 25 mM NaHCO3, pH 7.4, 0.01% LMNG; dimer peak of Superose 6 put on grids; three dimeric states (3.5, 3.4, 3.3 Å), final map 3.3 Å
protein,measurement,value
B1,stoichiometry N,2
